For one series, the target named is POLγA F197S;POLγB (Homo sapiens?;Homo sapiens?, UniProt P54098;Q9UHN1 26-1239;25-485, F197S|). Description: EMSA; 0.3 mM ddGTP, 3 mM dCTP; 10 fmol DNA in 15 µL; 25 mM Tris-HCl pH 7.8, 1 mM DTT, 0.1 mg/mL BSA, 10% glycerol, 0.3 mM ddGTP, 3 mM dCTP, no added Mg2+ stated; 10 min at ambient temperature; 6% native PAGE in 0.5x TBE. To be noted: protein: recombinant;recombinant; tags: 6xHis;6xHis; copies: 1;2; label: 32P 5' end of the 21-nt primer (S1); 21 bp duplex, 5' overhang 15 nt on S2 (template strand), recessed primer 3' end. In general terms: A gel shift assay detects complexes by their altered migration in electrophoresis.

The next series has as its target POLγA WT;POLγB (Homo sapiens?;Homo sapiens?, UniProt P54098;Q9UHN1 26-1239;25-485, |). Described as above. To be noted: protein: recombinant;recombinant; tags: 6xHis;6xHis; copies: 1;2; label: 32P 5' end of the 21-nt primer (S1); 21 bp duplex, 5' overhang 15 nt on S2 (template strand), recessed primer 3' end.

Sequence of POLγA WT;POLγB (P54098 26-1239, chain 1 of 2): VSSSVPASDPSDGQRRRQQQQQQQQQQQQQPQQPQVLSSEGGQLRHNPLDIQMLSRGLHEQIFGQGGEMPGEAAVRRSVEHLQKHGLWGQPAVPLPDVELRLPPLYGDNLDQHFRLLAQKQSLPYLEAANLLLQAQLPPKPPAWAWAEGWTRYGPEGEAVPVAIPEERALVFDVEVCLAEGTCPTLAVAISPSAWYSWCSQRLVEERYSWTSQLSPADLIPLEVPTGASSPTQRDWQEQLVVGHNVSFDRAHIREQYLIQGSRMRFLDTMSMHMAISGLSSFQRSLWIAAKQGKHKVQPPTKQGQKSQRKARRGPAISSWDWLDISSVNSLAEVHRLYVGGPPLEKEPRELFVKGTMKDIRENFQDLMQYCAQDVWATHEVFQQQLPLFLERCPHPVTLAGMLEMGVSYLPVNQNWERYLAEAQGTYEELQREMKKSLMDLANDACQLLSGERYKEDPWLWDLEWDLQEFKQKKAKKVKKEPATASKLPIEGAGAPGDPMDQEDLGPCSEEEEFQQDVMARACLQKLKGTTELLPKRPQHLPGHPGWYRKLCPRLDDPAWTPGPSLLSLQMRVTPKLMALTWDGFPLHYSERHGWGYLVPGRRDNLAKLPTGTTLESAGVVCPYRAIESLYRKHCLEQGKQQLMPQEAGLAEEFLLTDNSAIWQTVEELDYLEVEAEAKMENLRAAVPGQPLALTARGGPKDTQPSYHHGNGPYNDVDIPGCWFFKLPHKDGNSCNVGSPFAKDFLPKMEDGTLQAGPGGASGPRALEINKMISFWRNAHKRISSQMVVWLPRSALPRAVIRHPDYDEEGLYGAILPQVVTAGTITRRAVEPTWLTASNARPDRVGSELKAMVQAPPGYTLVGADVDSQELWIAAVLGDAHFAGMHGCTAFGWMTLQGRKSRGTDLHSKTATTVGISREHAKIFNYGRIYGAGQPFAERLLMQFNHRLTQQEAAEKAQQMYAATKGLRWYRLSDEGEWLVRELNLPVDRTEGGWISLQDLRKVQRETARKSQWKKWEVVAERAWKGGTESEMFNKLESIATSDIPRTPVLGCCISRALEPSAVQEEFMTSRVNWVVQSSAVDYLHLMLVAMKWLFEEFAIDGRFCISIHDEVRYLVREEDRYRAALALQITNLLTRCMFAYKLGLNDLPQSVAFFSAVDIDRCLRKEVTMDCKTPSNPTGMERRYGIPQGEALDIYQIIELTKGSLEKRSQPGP
Sequence of POLγA WT;POLγB (Q9UHN1 25-485, chain 2 of 2): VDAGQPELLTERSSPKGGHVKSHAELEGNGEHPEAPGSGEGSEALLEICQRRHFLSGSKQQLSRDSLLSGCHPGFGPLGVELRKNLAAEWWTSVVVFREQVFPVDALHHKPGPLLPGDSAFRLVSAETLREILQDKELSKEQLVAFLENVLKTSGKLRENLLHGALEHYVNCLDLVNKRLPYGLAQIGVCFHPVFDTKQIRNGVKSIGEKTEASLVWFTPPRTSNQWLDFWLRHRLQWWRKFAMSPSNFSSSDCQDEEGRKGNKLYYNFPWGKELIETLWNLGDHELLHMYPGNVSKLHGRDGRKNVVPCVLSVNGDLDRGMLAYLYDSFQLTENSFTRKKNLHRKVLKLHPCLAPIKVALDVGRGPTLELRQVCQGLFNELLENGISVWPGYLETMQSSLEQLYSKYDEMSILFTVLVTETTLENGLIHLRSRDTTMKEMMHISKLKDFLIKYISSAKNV
Sequence of POLγA F197S;POLγB (P54098 26-1239 F197S, chain 1 of 2): as the sequence (P54098 26-1239, chain 1 of 2) above, with F172S counted along it
Sequence of POLγA F197S;POLγB (Q9UHN1 25-485, chain 2 of 2): as the sequence (Q9UHN1 25-485, chain 2 of 2) above

B1: 21/36-nt primed template (dsDNA)
DNA 1: GCGGTCGAGTCTAGAGGAGCC
DNA 2: GACTACGTCTATCCGGGCTCCTCTAGACTCGACCGC
For B1, the binding result with POLγA F197S;POLγB and in the series with POLγA WT;POLγB was “binds” in each case.

The values above are taken from article PMC6975171, “Deep sequencing of mitochondrial DNA and characterization of a novel POLG mutation in a patient with arPEO”.
